Reference: publication PMC13147308 (2025)

Columns and labels:
Assay in all cases: ITC; Tris buffer
[1] = target: T1, SauCas9 WED (wedge-like) domain, His-tagged (Staphylococcus aureus)
T1 chain: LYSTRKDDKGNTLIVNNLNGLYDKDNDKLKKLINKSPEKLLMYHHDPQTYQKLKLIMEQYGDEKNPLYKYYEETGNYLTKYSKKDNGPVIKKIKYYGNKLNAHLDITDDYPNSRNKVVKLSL

[2] = target: T2, SauCas9 PI (PAM-interacting) domain, His-tagged (Staphylococcus aureus)
T2 chain: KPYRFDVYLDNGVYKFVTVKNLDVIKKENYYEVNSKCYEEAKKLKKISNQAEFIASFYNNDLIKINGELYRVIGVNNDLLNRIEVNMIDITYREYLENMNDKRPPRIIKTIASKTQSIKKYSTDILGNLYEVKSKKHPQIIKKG

[3] = target: T3, Staphylococcus aureus Cas9, full length, His-tagged (Staphylococcus aureus, UniProt J7RUA5 1-1053)
T3 chain: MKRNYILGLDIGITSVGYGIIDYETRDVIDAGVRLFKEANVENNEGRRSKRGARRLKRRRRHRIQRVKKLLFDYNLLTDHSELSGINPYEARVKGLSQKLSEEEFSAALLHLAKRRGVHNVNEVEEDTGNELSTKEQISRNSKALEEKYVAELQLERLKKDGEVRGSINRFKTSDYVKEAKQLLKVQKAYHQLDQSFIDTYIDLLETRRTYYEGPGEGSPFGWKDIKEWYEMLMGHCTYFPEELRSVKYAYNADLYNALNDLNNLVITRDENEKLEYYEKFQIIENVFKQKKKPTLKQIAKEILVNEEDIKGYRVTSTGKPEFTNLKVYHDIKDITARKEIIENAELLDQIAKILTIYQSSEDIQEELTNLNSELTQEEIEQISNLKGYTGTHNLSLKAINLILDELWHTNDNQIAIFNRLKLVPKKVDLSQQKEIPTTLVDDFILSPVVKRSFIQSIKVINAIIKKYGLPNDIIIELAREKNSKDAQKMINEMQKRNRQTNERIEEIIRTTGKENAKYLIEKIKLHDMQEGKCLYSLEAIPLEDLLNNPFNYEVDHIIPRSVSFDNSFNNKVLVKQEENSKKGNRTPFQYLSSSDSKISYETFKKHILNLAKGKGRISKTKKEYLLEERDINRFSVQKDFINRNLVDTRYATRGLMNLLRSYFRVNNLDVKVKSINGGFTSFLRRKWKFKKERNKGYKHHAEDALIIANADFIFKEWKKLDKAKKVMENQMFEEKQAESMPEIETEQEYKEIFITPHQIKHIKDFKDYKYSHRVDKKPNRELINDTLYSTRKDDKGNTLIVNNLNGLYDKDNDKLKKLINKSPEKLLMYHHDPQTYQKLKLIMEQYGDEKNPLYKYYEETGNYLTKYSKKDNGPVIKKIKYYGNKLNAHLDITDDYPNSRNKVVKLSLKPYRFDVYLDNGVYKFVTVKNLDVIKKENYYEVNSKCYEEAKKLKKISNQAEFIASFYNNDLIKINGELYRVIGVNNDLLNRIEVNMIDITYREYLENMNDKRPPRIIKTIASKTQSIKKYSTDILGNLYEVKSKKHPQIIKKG

[4] = target: T4, SauCas9 WED-PI domain construct, His-tagged (Staphylococcus aureus)
T4 chain: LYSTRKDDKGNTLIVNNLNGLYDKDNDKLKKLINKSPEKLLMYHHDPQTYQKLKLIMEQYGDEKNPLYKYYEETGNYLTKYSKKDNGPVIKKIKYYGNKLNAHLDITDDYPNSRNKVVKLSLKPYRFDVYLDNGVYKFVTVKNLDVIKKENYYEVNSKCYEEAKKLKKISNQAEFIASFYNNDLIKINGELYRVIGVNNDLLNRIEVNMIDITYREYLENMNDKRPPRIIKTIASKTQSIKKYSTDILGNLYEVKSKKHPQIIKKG

B1: Staphylococcus haemolyticus AcrIIA13b, wild type, with C-terminal 6xHis tag (natural protein)
chain: MNELNNKMIEDVVLGEVELIEDLGQYFIDIEGDYEYNVEFATLSEVDYKVCALYEVATSKTYEVPYHDKLEKEDMKLFYDKWLEKDQQEETYIESVFFVNREDAESYIKDVLKGKESLTEVAAEIGYFELEHHHHHH
[1]
  Kd: 8.17 µM
[2]
  Kd: 3.83 µM
[3]
  Kd: 6.15 µM
[4]
  Kd: 1.61 µM
